In the supplement of paper PMC9112550, “Optimization of the antimicrobial peptide Bac7 by deep mutational scanning” (BMC Biology, 2022):

system: Escherichia coli TOP10; assay: shrunken log2 fold change of peptide-encoding DNA abundance (4.5 h post-induction vs induction); higher = less antimicrobial activity (less host growth inhibition); conditions: time post-induction: 4.5 h; library: site-saturation at positions 5, 18, 19, 20
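Further: peptides expressed intracellularly from a pBAD plasmid library in pooled LB shake-flask culture, induced with 0.3% L-arabinose, DNA abundance read by NGS, three biological replicates, DESeq2 with apeglm shrinkage.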

Row | Sequence | shrunken log2 fold change
1 | RRIRIRPPRLPRPRPRPEQMPRP | 0.224
2 | RRIRQRPPRLPRPRPRPKGNPRP | -0.365
3 | RRIRNRPPRLPRPRPRPHHLPRP | -0.427
4 | RRIRFRPPRLPRPRPRPRIMPRP | -0.624
5 | RRIRERPPRLPRPRPRPWGHPRP | -0.118
6 | RRIRLRPPRLPRPRPRPCCGPRP | -0.00366
7 | RRIRGRPPRLPRPRPRPACWPRP | 1.08
8 | RRIRIRPPRLPRPRPRPDCWPRP | 0.103
9 | RRIRQRPPRLPRPRPRPRIWPRP | 0.123
10 | RRIRSRPPRLPRPRPRPHCIPRP | 0.021
11 | RRIRMRPPRLPRPRPRPKANPRP | 1.96
12 | RRIRSRPPRLPRPRPRPNTDPRP | -0.442
13 | RRIRFRPPRLPRPRPRPPVNPRP | 0.147
14 | RRIRYRPPRLPRPRPRPGSMPRP | -0.182
15 | RRIRWRPPRLPRPRPRPKCFPRP | -0.076
16 | RRIRGRPPRLPRPRPRPNWDPRP | 0.738
17 | RRIRHRPPRLPRPRPRPSTEPRP | -0.168
18 | RRIRDRPPRLPRPRPRPSDVPRP | -0.022
19 | RRIRTRPPRLPRPRPRPGYQPRP | -0.0553
20 | RRIRNRPPRLPRPRPRPGQYPRP | 0.0262
21 | RRIRQRPPRLPRPRPRPYIPPRP | -0.619
22 | RRIRYRPPRLPRPRPRPKDTPRP | -0.392
23 | RRIRGRPPRLPRPRPRPCVKPRP | 0.063
24 | RRIRPRPPRLPRPRPRPTIAPRP | -0.0457
25 | RRIRSRPPRLPRPRPRPTGEPRP | 0.0361

Row | Sequence | shrunken log2 fold change
26 | RRIRMRPPRLPRPRPRPWQVPRP | -0.0506
27 | RRIRNRPPRLPRPRPRPFWSPRP | -0.146
28 | RRIRPRPPRLPRPRPRPSREPRP | 0.113
29 | RRIRNRPPRLPRPRPRPHMWPRP | -0.0758
30 | RRIRSRPPRLPRPRPRPDLSPRP | 0.101
31 | RRIRIRPPRLPRPRPRPGAKPRP | 0.126
32 | RRIRNRPPRLPRPRPRPQVRPRP | 0.05
33 | RRIRWRPPRLPRPRPRPSMDPRP | -0.128
34 | RRIRRRPPRLPRPRPRPHQIPRP | 0.0553
35 | RRIRGRPPRLPRPRPRPAYTPRP | -0.166
36 | RRIRQRPPRLPRPRPRPQVWPRP | -0.0346
37 | RRIRCRPPRLPRPRPRPSICPRP | -0.194
38 | RRIRHRPPRLPRPRPRPWMEPRP | -0.00645
39 | RRIRIRPPRLPRPRPRPWLNPRP | -0.562
40 | RRIRGRPPRLPRPRPRPSMCPRP | 0.37
41 | RRIRWRPPRLPRPRPRPLVTPRP | 0.687
42 | RRIRFRPPRLPRPRPRPCIHPRP | -0.0499
43 | RRIRWRPPRLPRPRPRPTVFPRP | 0.255
44 | RRIRDRPPRLPRPRPRPGDCPRP | 0.0646
45 | RRIRKRPPRLPRPRPRPLLGPRP | 0.628
46 | RRIRQRPPRLPRPRPRPTRNPRP | 0.185
47 | RRIRIRPPRLPRPRPRPDYYPRP | -0.155
48 | RRIRTRPPRLPRPRPRPRCWPRP | 0.386
49 | RRIRMRPPRLPRPRPRPQKSPRP | 0.167
50 | RRIRLRPPRLPRPRPRPLGFPRP | 0.38

Row | Sequence | shrunken log2 fold change
51 | RRIRARPPRLPRPRPRPTNWPRP | 0.835
52 | RRIRDRPPRLPRPRPRPGWKPRP | 0.136
53 | RRIRCRPPRLPRPRPRPACEPRP | 0.112
54 | RRIRCRPPRLPRPRPRPTVAPRP | 0.0998
55 | RRIRARPPRLPRPRPRPDAFPRP | 0.879
56 | RRIRARPPRLPRPRPRPNMKPRP | -0.348
57 | RRIRIRPPRLPRPRPRPKFQPRP | -0.327
58 | RRIRRRPPRLPRPRPRPWSHPRP | -0.121
59 | RRIRYRPPRLPRPRPRPRWVPRP | -0.0064
60 | RRIRCRPPRLPRPRPRPMCSPRP | -0.218
61 | RRIRKRPPRLPRPRPRPVKCPRP | 0.105
62 | RRIRFRPPRLPRPRPRPIFPPRP | -0.222
63 | RRIRCRPPRLPRPRPRPVMRPRP | 0.16
64 | RRIRRRPPRLPRPRPRPCHQPRP | -0.172
65 | RRIRTRPPRLPRPRPRPYFVPRP | -0.258
66 | RRIRHRPPRLPRPRPRPGKVPRP | -0.0067
67 | RRIRTRPPRLPRPRPRPETSPRP | 0.199
68 | RRIRYRPPRLPRPRPRPWKHPRP | -0.0695
69 | RRIRMRPPRLPRPRPRPKRQPRP | 0.0602
70 | RRIRIRPPRLPRPRPRPCSHPRP | 0.0454
71 | RRIRVRPPRLPRPRPRPYLTPRP | -0.575
72 | RRIRTRPPRLPRPRPRPFRIPRP | -0.0114
73 | RRIRARPPRLPRPRPRPTDPPRP | 0.2
74 | RRIRARPPRLPRPRPRPPFRPRP | 0.977
75 | RRIRQRPPRLPRPRPRPYWTPRP | -0.496
